Measured values taken from paper PMC7325863 (Neurobiology of aging, 2019).

Target: Presenilin 1 (mouse (endogenous in primary neurons of …, UniProt P49769 1-467))
Assay: co-IP

- fold change of co-precipitated Syt-1/PS1, old against young neurons (-KCl): 1.79 fold
B1: Synaptotagmin 1 (natural protein)
chain: MVSASRPEALAAPVTTVATLVPHNATEPASPGEGKEDAFSKLKQKFMNELHKIPLPPWALIAIAIVAVLLVVTCCFCVCKKCLFKKKNKKKGKEKGGKNAINMKDVKDLGKTMKDQALKDDDAETGLTDGEEKEEPKEEEKLGKLQYSLDYDFQNNQLLVGIIQAAELPALDMGGTSDPYVKVFLLPDKKKKFETKVHRKTLNPVFNEQFTFKVPYSELGGKTLVMAVYDFDRFSKHDIIGEFKVPMNTVDFGHVTEEWRDLQSAEKEEQEKLGDICFSLRYVPTAGKLTVVILEAKNLKKMDVGGLSDPYVKIHLMQNGKRLKKKKTTIKKNTLNPYYNESFSFEVPFEQIQKVQVVVTVLDYDKIGKNDAIGKVFVGYNSTGAELRHWSDMLANPRRPIAQWHTLQVEEEVDAMLAVKK
